In the RNAGym collection of RNA variant scans (doi:10.7554/elife.80360):

B1: CPEB3 Ribozyme (parent)
chain: GGGGGCCACAGCAGAAGCGUUCACGUCGCGGCCCCUGUCAGAUUCUGGUGAAUCUGCGAAUUCUGCUGU

Variants of: B1
Assay: self-cleavage, relative activity (ratio to wild type); higher = more cleavage; co-transcriptional
With C12G G56A the self-cleavage was 0.741.
Work on C12G G56U yielded a self-cleavage of 0.544.
In the case of C12G G58C, the self-cleavage is reported as 0.834.
For C12G G68A, the self-cleavage was 0.972.
Work on C12G G68C yielded a self-cleavage of 0.832.
C12G U20C showed a self-cleavage of 0.119.
C12G U21C gave a self-cleavage of 0.308.
C12G U36C gave a self-cleavage of 0.669.
Work on C12G U38C yielded a self-cleavage of 0.745.
C12G U43G showed a self-cleavage of 0.361.
Work on C12G U44A yielded a self-cleavage of 0.727.
For C12G U49A, the self-cleavage was 0.934.
C12G U49C gave a self-cleavage of 0.827.
With C12G U61C the self-cleavage was 0.282.
For C12G U62A, the self-cleavage was 0.349.
In the case of C12G U62C, the self-cleavage is reported as 0.458.
Variant C12G U64C has a self-cleavage of 0.566.
C12G U64G gave a self-cleavage of 0.395.
In the case of C12G U67C, the self-cleavage is reported as 0.917.
Work on C12G U69C yielded a self-cleavage of 1.06.
In the case of C12U, the self-cleavage is reported as 0.996.
C12U A15C showed a self-cleavage of 0.389.
In the case of C12U A23C, the self-cleavage is reported as 0.93.
C12U A40U showed a self-cleavage of 0.643.
Variant C12U A51C has a self-cleavage of 0.977.
Variant C12U A52U has a self-cleavage of 0.952.
C12U A60U gave a self-cleavage of 0.374.
For C12U C22A, the self-cleavage was 0.2.
C12U C24A showed a self-cleavage of 0.713.
Variant C12U C24G has a self-cleavage of 0.316.
Work on C12U C24U yielded a self-cleavage of 0.805.
For C12U C27G, the self-cleavage was 0.174.
C12U C29A gave a self-cleavage of 0.451.
C12U C32U showed a self-cleavage of 0.999.
In the case of C12U C33A, the self-cleavage is reported as 0.924.
Variant C12U C33G has a self-cleavage of 0.656.
For C12U C35A, the self-cleavage was 0.275.
C12U C35G showed a self-cleavage of 0.45.
In the case of C12U C35U, the self-cleavage is reported as 0.947.
With C12U C39A the self-cleavage was 0.756.
Work on C12U C45G yielded a self-cleavage of 0.98.
Work on C12U C45U yielded a self-cleavage of 1.01.
For C12U C54U, the self-cleavage was 0.968.
In the case of C12U C57U, the self-cleavage is reported as 0.317.
C12U C63A showed a self-cleavage of 0.56.
In the case of C12U C63U, the self-cleavage is reported as 0.898.
For C12U C66G, the self-cleavage was 0.556.
In the case of C12U C66U, the self-cleavage is reported as 0.798.
Work on C12U G14C yielded a self-cleavage of 0.146.
Variant C12U G14U has a self-cleavage of 0.345.
Variant C12U G19U has a self-cleavage of 0.339.
In the case of C12U G30C, the self-cleavage is reported as 0.67.
In the case of C12U G30U, the self-cleavage is reported as 0.368.
With C12U G41A the self-cleavage was 0.716.
Work on C12U G41C yielded a self-cleavage of 0.617.
Variant C12U G48A has a self-cleavage of 0.963.
Work on C12U G48C yielded a self-cleavage of 0.972.
For C12U G50U, the self-cleavage was 0.953.
Variant C12U G56C has a self-cleavage of 0.554.
Variant C12U G56U has a self-cleavage of 0.802.
C12U G58C gave a self-cleavage of 1.01.
In the case of C12U G68C, the self-cleavage is reported as 1.01.
Variant C12U U20G has a self-cleavage of 0.17.
In the case of C12U U21C, the self-cleavage is reported as 0.9.
Variant C12U U36C has a self-cleavage of 0.892.
In the case of C12U U38A, the self-cleavage is reported as 0.88.
Work on C12U U43A yielded a self-cleavage of 0.868.
Work on C12U U44A yielded a self-cleavage of 0.954.
For C12U U44G, the self-cleavage was 0.866.
For C12U U46G, the self-cleavage was 1.
Work on C12U U49A yielded a self-cleavage of 1.02.
Work on C12U U53C yielded a self-cleavage of 0.785.
C12U U55A gave a self-cleavage of 0.756.
In the case of C12U U61C, the self-cleavage is reported as 0.579.
C12U U61G showed a self-cleavage of 0.644.
C12U U62C gave a self-cleavage of 0.511.
Variant C12U U67C has a self-cleavage of 0.978.
Work on C12U U69A yielded a self-cleavage of 1.02.
Work on C12U U69G yielded a self-cleavage of 1.05.
In the case of A13C, the self-cleavage is reported as 0.913.
For A13C A15C, the self-cleavage was 0.264.
With A13C A15U the self-cleavage was 0.145.
In the case of A13C A23C, the self-cleavage is reported as 0.83.
In the case of A13C A40G, the self-cleavage is reported as 0.738.
Work on A13C A42C yielded a self-cleavage of 0.602.
A13C A51C showed a self-cleavage of 0.827.
For A13C A51U, the self-cleavage was 0.744.
A13C A52G showed a self-cleavage of 0.823.
A13C A60U showed a self-cleavage of 0.276.
A13C C22A showed a self-cleavage of 0.0721.
A13C C22G gave a self-cleavage of 0.149.
For A13C C24G, the self-cleavage was 0.0828.
A13C C27G showed a self-cleavage of 0.048.
With A13C C29G the self-cleavage was 0.141.
A13C C32G showed a self-cleavage of 0.192.
In the case of A13C C32U, the self-cleavage is reported as 0.89.
In the case of A13C C33G, the self-cleavage is reported as 0.231.
For A13C C33U, the self-cleavage was 0.774.
Variant A13C C34A has a self-cleavage of 0.511.
Work on A13C C34U yielded a self-cleavage of 0.929.
A13C C35A gave a self-cleavage of 0.281.
Variant A13C C39A has a self-cleavage of 0.372.
A13C C39G gave a self-cleavage of 0.538.
For A13C C45U, the self-cleavage was 0.876.
In the case of A13C C57G, the self-cleavage is reported as 0.235.
In the case of A13C C57U, the self-cleavage is reported as 0.248.
Variant A13C G17U has a self-cleavage of 0.125.
A13C G19A showed a self-cleavage of 0.109.
Work on A13C G19C yielded a self-cleavage of 0.107.
With A13C G25A the self-cleavage was 0.129.
A13C G25U gave a self-cleavage of 0.104.
A13C G30A gave a self-cleavage of 0.497.
For A13C G31C, the self-cleavage was 0.131.
Work on A13C G37C yielded a self-cleavage of 0.156.
A13C G41A showed a self-cleavage of 0.27.
Work on A13C G47A yielded a self-cleavage of 0.922.
A13C G48A showed a self-cleavage of 0.957.
A13C G48C showed a self-cleavage of 0.917.
A13C G48U gave a self-cleavage of 0.934.
A13C G50A showed a self-cleavage of 0.913.
A13C G65U showed a self-cleavage of 0.41.
Work on A13C G68U yielded a self-cleavage of 0.892.
For A13C U20G, the self-cleavage was 0.089.
A13C U36A gave a self-cleavage of 0.175.
In the case of A13C U36G, the self-cleavage is reported as 0.201.
For A13C U38A, the self-cleavage was 0.679.
A13C U38C showed a self-cleavage of 0.668.
With A13C U38G the self-cleavage was 0.0833.
Work on A13C U43C yielded a self-cleavage of 0.685.
Variant A13C U46A has a self-cleavage of 0.901.
A13C U46G showed a self-cleavage of 0.885.
A13C U53C showed a self-cleavage of 0.352.
With A13C U53G the self-cleavage was 0.63.
A13C U55A gave a self-cleavage of 0.315.
Work on A13C U55G yielded a self-cleavage of 0.322.
A13C U61A showed a self-cleavage of 0.459.
A13C U61G showed a self-cleavage of 0.406.
A13C U62A gave a self-cleavage of 0.348.
For A13C U62C, the self-cleavage was 0.475.
A13C U64C gave a self-cleavage of 0.614.
With A13C U67A the self-cleavage was 0.783.
A13C U67C showed a self-cleavage of 0.706.
For A13C U69A, the self-cleavage was 0.915.
A13C U69C showed a self-cleavage of 1.06.
Variant A13G has a self-cleavage of 0.97.
For A13G A15U, the self-cleavage was 0.547.
Work on A13G A16C yielded a self-cleavage of 0.175.
Variant A13G A16G has a self-cleavage of 0.855.
For A13G A16U, the self-cleavage was 0.714.
For A13G A23G, the self-cleavage was 0.804.
For A13G A23U, the self-cleavage was 0.997.
Variant A13G A40C has a self-cleavage of 0.306.
A13G A42C gave a self-cleavage of 0.647.
Variant A13G A42G has a self-cleavage of 0.855.
A13G A51G gave a self-cleavage of 0.843.
In the case of A13G A51U, the self-cleavage is reported as 0.905.
With A13G A52U the self-cleavage was 0.989.
A13G C18U showed a self-cleavage of 0.382.
A13G C22A showed a self-cleavage of 0.106.
In the case of A13G C22U, the self-cleavage is reported as 0.207.
In the case of A13G C24G, the self-cleavage is reported as 0.368.
In the case of A13G C27A, the self-cleavage is reported as 0.425.
Work on A13G C27G yielded a self-cleavage of 0.137.
With A13G C29U the self-cleavage was 0.133.
Variant A13G C33A has a self-cleavage of 0.942.
In the case of A13G C33U, the self-cleavage is reported as 0.946.
A13G C35A gave a self-cleavage of 0.167.
